Reference: patent publication US20240150417A1 (CELLEMEDY, published 2024)

B1: Ein-gp100-huHF (other)
chain: MHHHHHHEFTTASTSQVRQNYHQDSEAAINRQINLELYASYVYLSMSYYFDRDDVALKNFAKYFLHQSHEEREHAEKLMKLQNQRGGRIFLQDIKKPDCDDWESGLNAMECALHLEKNVNQSLLELHKLATDKNDPHLCDFIETHYLNEQVKAIKELGDHVTNLRKMGAPESGLAEYLFDKHKVPRNQDWLTLGDSDNES
notes: Self-assembled 24-mer; built from the site; also called gp100-huHF, TSA insertion site Ein (the middle of E helix)
B2: Din-gp100-huHF (other)
chain: MHHHHHHEFTTASTSQVRQNYHQDSEAAINRQINLELYASYVYLSMSYYFDRDDVALKNFAKYFLHQSHEEREHAEKLMKLQNQRGGRIFLQDIKKPDCDDWESGLNAMECALHLEKNVNQSLLELHKLATDKNDPHLCDFIETHYLNEQVKAIKELGDHVTNLRKVPRNQDWLKMGAPESGLAEYLFDKHTLGDSDNES
modifications: One monomer given; 24 monomers self-assemble. His tag carried RED-tris-NTA dye in MST.
notes: Self-assembled 24-mer; built from the site; also called gp100-huHF, TSA insertion site Din (the middle of D helix)

Molecular target: T1, human transferrin receptor (human, UniProt P02786 89-760, limits assumed)
T1 construct: also called TfR Human; transferrin receptor 1
Experiment: MST (Monolith NT.115), dye-labelled protein, receptor titrated
Procedure: First, 100 μl of dye that specifically binds to a hexa-His tag (RED-tris-NTA 2nd Generation Dye) was prepared at a concentration of 50 nM, along with 100 μl of the produced protein at a concentration of 200 nM, followed by mixing the same and incubating at room temperature for 30 minutes. The incubated product was centrifuged at 13000 rpm for 10 minutes at 4° C. by a centrifuge, thus to separate the supernatant and obtain a dye-labeled protein.
Then, 25 μl of 9.65 μM transferrin receptor was added to the 1st PCR tube; 10 μl of PBS-T (PBS+0.5% tween 20) buffer was added to 2nd to 16th PCR tubes; 10 μl of transferrin in the 1st PCR tube was transferred to the 2nd PCR tube; and 10 μl was again transferred from the 2nd PCR tube to the 3rd PCR tube. Likewise, this procedure was continued up to the 16th tube thus to perform ½ dilution in a sequential order so that each of the 2nd to 16th PCR tubes becomes 20 μl.
Thereafter, 10 μl of the dye-labeled protein was added to each PCR tube, and the reaction was performed at room temperature for 1 hour.

T1 sequence (P02786 89-760 limits assumed): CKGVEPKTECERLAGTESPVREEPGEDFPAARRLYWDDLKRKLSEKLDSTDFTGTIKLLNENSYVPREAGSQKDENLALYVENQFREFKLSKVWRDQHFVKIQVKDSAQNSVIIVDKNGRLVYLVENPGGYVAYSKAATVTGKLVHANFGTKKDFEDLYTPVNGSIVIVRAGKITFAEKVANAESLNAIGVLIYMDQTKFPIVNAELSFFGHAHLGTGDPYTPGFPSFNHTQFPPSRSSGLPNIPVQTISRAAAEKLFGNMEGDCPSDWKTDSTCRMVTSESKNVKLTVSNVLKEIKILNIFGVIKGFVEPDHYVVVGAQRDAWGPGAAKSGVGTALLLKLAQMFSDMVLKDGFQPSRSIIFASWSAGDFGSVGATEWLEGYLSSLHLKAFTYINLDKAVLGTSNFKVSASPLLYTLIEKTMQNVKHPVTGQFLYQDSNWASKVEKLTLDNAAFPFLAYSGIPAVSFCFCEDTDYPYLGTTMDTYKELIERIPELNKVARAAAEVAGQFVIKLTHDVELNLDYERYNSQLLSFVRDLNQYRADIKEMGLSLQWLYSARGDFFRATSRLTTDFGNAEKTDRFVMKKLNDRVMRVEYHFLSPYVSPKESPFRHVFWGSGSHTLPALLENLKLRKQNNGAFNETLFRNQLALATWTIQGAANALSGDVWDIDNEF

Binder | Kd [nM]
B1 | 6.28
B2 | 29.3
